Numbered stars: 1 amine (or outer) side, 2 acyl side, 3 side chain; on linkers, the order of the positions; unused ones are H or OH. Bridge positions count the residues as written; N and C are the ends. Side chains are listed from the residue outwards. Ends that are not written are not given here. * marks the point of attachment. C20 diacid = O=C(O)CCCCCCCCCCCCCCCCCCC(=O)*; γGlu = O=C(O)[C@H](CCC(=O)[*:2])N[*:1]
T1: human amylin receptor (amylin 3(a) receptor: human calcitonin receptor with RAMP-3) (human, UniProt P30988 25-474; O60896 24-148, limits assumed)
T1 construct: whole, on cells; Whole cells in the luciferase assay (Assay II a); also called hAmylin-R; hAmylinR
T1 sequence (looked up) 1: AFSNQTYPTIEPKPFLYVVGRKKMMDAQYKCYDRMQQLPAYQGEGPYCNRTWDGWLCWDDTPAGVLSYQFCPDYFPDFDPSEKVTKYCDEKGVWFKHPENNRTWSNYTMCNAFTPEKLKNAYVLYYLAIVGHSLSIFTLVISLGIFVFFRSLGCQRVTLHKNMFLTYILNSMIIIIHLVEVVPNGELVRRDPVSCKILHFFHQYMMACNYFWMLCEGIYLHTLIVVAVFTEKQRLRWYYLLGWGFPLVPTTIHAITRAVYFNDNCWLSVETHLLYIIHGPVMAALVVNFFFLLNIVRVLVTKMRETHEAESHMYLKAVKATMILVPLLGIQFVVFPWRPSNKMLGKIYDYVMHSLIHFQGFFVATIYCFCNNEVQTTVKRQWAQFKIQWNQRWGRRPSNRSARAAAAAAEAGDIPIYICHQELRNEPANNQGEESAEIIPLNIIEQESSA
T1 sequence (looked up) 2: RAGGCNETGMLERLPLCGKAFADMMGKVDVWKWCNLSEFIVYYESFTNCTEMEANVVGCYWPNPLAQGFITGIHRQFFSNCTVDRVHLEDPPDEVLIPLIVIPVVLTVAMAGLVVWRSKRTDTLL

T2: human calcitonin receptor (human, UniProt P30988 25-474)
T2 sequence (looked up): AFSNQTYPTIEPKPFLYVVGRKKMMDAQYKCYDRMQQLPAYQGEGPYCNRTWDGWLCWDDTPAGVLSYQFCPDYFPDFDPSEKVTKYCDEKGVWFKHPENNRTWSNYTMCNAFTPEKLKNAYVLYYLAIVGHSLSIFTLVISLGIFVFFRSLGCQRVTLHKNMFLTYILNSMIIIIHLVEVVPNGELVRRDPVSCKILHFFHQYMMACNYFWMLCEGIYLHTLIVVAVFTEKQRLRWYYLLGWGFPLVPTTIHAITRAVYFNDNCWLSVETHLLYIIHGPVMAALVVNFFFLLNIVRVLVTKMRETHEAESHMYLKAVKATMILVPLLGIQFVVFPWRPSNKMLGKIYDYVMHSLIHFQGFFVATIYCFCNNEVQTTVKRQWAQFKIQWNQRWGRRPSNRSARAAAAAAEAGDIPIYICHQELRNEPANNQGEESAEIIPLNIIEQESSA


Key:
[1] = biological target: T1, human amylin receptor (amylin 3(a) …); assay: SPA competition binding on membranes of BHK cells with human calcitonin receptor + RAMP-3; displacement of 125I-rat amylin (Assay V)
How it was run: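 Membranes from BHK Amylin 3(a)/CRE-luc cells (35 ng/μL final) were mixed with SPA beads and test compounds in 50 mM Hepes pH 7.4 with 1 mM CaCl2, 5 mM MgCl₂, 0.1% OA and 0.02% Tween20. Incubation ran 120 min at 25° C with shaking; IC₅₀ came from one-site competition fitting.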

[2] = biological target: T2, human calcitonin receptor; assay: cell-based or functional assay

Row | Binder | IC50 [1] [nM] | Ratio hCT/hAmylin funct. [2] [ratio] | hCTR funct. EC50 (pM) [2] [pM]
1 | K([γGlu-C20 diacid])CNTATCATQRLAAFLRHSSPNFGAIPSSTNVGPNTY-NH2 (disulfide 2-7; N-terminus assumed; SMILES CC[C@H](C)[C@H](NC(=O)[C@H](C)NC(=O)CNC(=O)[C@H](Cc1ccccc1)NC(=O)[C@H](CC(N)=O)NC(=O)[C@@H]1CCCN1C(=O)[C@H](CO)NC(=O)[C@H](CO)NC(=O)[C@H](Cc1c[nH]cn1)NC(=O)[C@H](CCCNC(=N)N)NC(=O)[C@H](CC(C)C)NC(=O)[C@H](Cc1ccccc1)NC(=O)[C@H](C)NC(=O)[C@H](C)NC(=O)[C@H](CC(C)C)NC(=O)[C@H](CCCNC(=N)N)NC(=O)[C@H](CCC(N)=O)NC(=O)[C@@H](NC(=O)[C@H](C)NC(=O)[C@@H]1CSSC[C@H](NC(=O)[C@@H](N)CCCCNC(=O)CC[C@H](NC(=O)CCCCCCCCCCCCCCCCCCC(=O)O)C(=O)O)C(=O)N[C@@H](CC(N)=O)C(=O)N[C@@H]([C@@H](C)O)C(=O)N[C@@H](C)C(=O)N[C@@H]([C@@H](C)O)C(=O)N1)[C@@H](C)O)C(=O)N1CCC[C@H]1C(=O)N[C@@H](CO)C(=O)N[C@@H](CO)C(=O)N[C@H](C(=O)N[C@@H](CC(N)=O)C(=O)N[C@H](C(=O)NCC(=O)N1CCC[C@H]1C(=O)N[C@@H](CC(N)=O)C(=O)N[C@H](C(=O)N[C@@H](Cc1ccc(O)cc1)C(N)=O)[C@@H](C)O)C(C)C)[C@@H](C)O, also called compound 94) | 0.148 | 4.5 | –
2 | K([γGlu-C20 diacid])CNTATCATQRLAEFLRHSSPNFGAIPSSTNVGPNTP-NH2 (disulfide 2-7; N-terminus assumed; SMILES CC[C@H](C)[C@H](NC(=O)[C@H](C)NC(=O)CNC(=O)[C@H](Cc1ccccc1)NC(=O)[C@H](CC(N)=O)NC(=O)[C@@H]1CCCN1C(=O)[C@H](CO)NC(=O)[C@H](CO)NC(=O)[C@H](Cc1c[nH]cn1)NC(=O)[C@H](CCCNC(=N)N)NC(=O)[C@H](CC(C)C)NC(=O)[C@H](Cc1ccccc1)NC(=O)[C@H](CCC(=O)O)NC(=O)[C@H](C)NC(=O)[C@H](CC(C)C)NC(=O)[C@H](CCCNC(=N)N)NC(=O)[C@H](CCC(N)=O)NC(=O)[C@@H](NC(=O)[C@H](C)NC(=O)[C@@H]1CSSC[C@H](NC(=O)[C@@H](N)CCCCNC(=O)CC[C@H](NC(=O)CCCCCCCCCCCCCCCCCCC(=O)O)C(=O)O)C(=O)N[C@@H](CC(N)=O)C(=O)N[C@@H]([C@@H](C)O)C(=O)N[C@@H](C)C(=O)N[C@@H]([C@@H](C)O)C(=O)N1)[C@@H](C)O)C(=O)N1CCC[C@H]1C(=O)N[C@@H](CO)C(=O)N[C@@H](CO)C(=O)N[C@H](C(=O)N[C@@H](CC(N)=O)C(=O)N[C@H](C(=O)NCC(=O)N1CCC[C@H]1C(=O)N[C@@H](CC(N)=O)C(=O)N[C@H](C(=O)N1CCC[C@H]1C(N)=O)[C@@H](C)O)C(C)C)[C@@H](C)O) | 0.214 | 0.9 | –
3 | K([γGlu-C20 diacid])CNTATCATQRLAHFLRHSSPNFGAIPSSTPVGPNTY-NH2 (disulfide 2-7; N-terminus assumed; SMILES CC[C@H](C)[C@H](NC(=O)[C@H](C)NC(=O)CNC(=O)[C@H](Cc1ccccc1)NC(=O)[C@H](CC(N)=O)NC(=O)[C@@H]1CCCN1C(=O)[C@H](CO)NC(=O)[C@H](CO)NC(=O)[C@H](Cc1c[nH]cn1)NC(=O)[C@H](CCCNC(=N)N)NC(=O)[C@H](CC(C)C)NC(=O)[C@H](Cc1ccccc1)NC(=O)[C@H](Cc1c[nH]cn1)NC(=O)[C@H](C)NC(=O)[C@H](CC(C)C)NC(=O)[C@H](CCCNC(=N)N)NC(=O)[C@H](CCC(N)=O)NC(=O)[C@@H](NC(=O)[C@H](C)NC(=O)[C@@H]1CSSC[C@H](NC(=O)[C@@H](N)CCCCNC(=O)CC[C@H](NC(=O)CCCCCCCCCCCCCCCCCCC(=O)O)C(=O)O)C(=O)N[C@@H](CC(N)=O)C(=O)N[C@@H]([C@@H](C)O)C(=O)N[C@@H](C)C(=O)N[C@@H]([C@@H](C)O)C(=O)N1)[C@@H](C)O)C(=O)N1CCC[C@H]1C(=O)N[C@@H](CO)C(=O)N[C@@H](CO)C(=O)N[C@H](C(=O)N1CCC[C@H]1C(=O)N[C@H](C(=O)NCC(=O)N1CCC[C@H]1C(=O)N[C@@H](CC(N)=O)C(=O)N[C@H](C(=O)N[C@@H](Cc1ccc(O)cc1)C(N)=O)[C@@H](C)O)C(C)C)[C@@H](C)O) | 0.082 | 4.9 | –
4 | K([γGlu-C20 diacid])CNTATCATQRLAHFLRHSSPNFGAIPSSTNVGPNTP-NH2 (disulfide 2-7; N-terminus assumed; SMILES CC[C@H](C)[C@H](NC(=O)[C@H](C)NC(=O)CNC(=O)[C@H](Cc1ccccc1)NC(=O)[C@H](CC(N)=O)NC(=O)[C@@H]1CCCN1C(=O)[C@H](CO)NC(=O)[C@H](CO)NC(=O)[C@H](Cc1c[nH]cn1)NC(=O)[C@H](CCCNC(=N)N)NC(=O)[C@H](CC(C)C)NC(=O)[C@H](Cc1ccccc1)NC(=O)[C@H](Cc1c[nH]cn1)NC(=O)[C@H](C)NC(=O)[C@H](CC(C)C)NC(=O)[C@H](CCCNC(=N)N)NC(=O)[C@H](CCC(N)=O)NC(=O)[C@@H](NC(=O)[C@H](C)NC(=O)[C@@H]1CSSC[C@H](NC(=O)[C@@H](N)CCCCNC(=O)CC[C@H](NC(=O)CCCCCCCCCCCCCCCCCCC(=O)O)C(=O)O)C(=O)N[C@@H](CC(N)=O)C(=O)N[C@@H]([C@@H](C)O)C(=O)N[C@@H](C)C(=O)N[C@@H]([C@@H](C)O)C(=O)N1)[C@@H](C)O)C(=O)N1CCC[C@H]1C(=O)N[C@@H](CO)C(=O)N[C@@H](CO)C(=O)N[C@H](C(=O)N[C@@H](CC(N)=O)C(=O)N[C@H](C(=O)NCC(=O)N1CCC[C@H]1C(=O)N[C@@H](CC(N)=O)C(=O)N[C@H](C(=O)N1CCC[C@H]1C(N)=O)[C@@H](C)O)C(C)C)[C@@H](C)O) | 0.131 | 0.8 | –

The remaining binders from weak to strong by IC50 [1], led by results:

Row | IC50 [1] [nM] | Ratio hCT/hAmylin funct. [2] [ratio] | hCTR funct. EC50 (pM) [2] [pM] | Binder
5 | 0.794 | 3.8 | – | {C20 diacid-γGlu}-KCNTATCATQRLAEFLRHSSPNFGAIPSSTNVGSETY-NH2 (disulfide 2-7; SMILES CC[C@H](C)[C@H](NC(=O)[C@H](C)NC(=O)CNC(=O)[C@H](Cc1ccccc1)NC(=O)[C@H](CC(N)=O)NC(=O)[C@@H]1CCCN1C(=O)[C@H](CO)NC(=O)[C@H](CO)NC(=O)[C@H](Cc1c[nH]cn1)NC(=O)[C@H](CCCNC(=N)N)NC(=O)[C@H](CC(C)C)NC(=O)[C@H](Cc1ccccc1)NC(=O)[C@H](CCC(=O)O)NC(=O)[C@H](C)NC(=O)[C@H](CC(C)C)NC(=O)[C@H](CCCNC(=N)N)NC(=O)[C@H](CCC(N)=O)NC(=O)[C@@H](NC(=O)[C@H](C)NC(=O)[C@@H]1CSSC[C@H](NC(=O)[C@H](CCCCN)NC(=O)CC[C@H](NC(=O)CCCCCCCCCCCCCCCCCCC(=O)O)C(=O)O)C(=O)N[C@@H](CC(N)=O)C(=O)N[C@@H]([C@@H](C)O)C(=O)N[C@@H](C)C(=O)N[C@@H]([C@@H](C)O)C(=O)N1)[C@@H](C)O)C(=O)N1CCC[C@H]1C(=O)N[C@@H](CO)C(=O)N[C@@H](CO)C(=O)N[C@H](C(=O)N[C@@H](CC(N)=O)C(=O)N[C@H](C(=O)NCC(=O)N[C@@H](CO)C(=O)N[C@@H](CCC(=O)O)C(=O)N[C@H](C(=O)N[C@@H](Cc1ccc(O)cc1)C(N)=O)[C@@H](C)O)C(C)C)[C@@H](C)O, also called compound 22)
6 | 0.196 | 3.9 | 1120 | K([γGlu-C20 diacid])CNTATCATQRLADFLRHSSPNFGAIPSSTNVGPETY-NH2 (disulfide 2-7; N-terminus assumed; SMILES CC[C@H](C)[C@H](NC(=O)[C@H](C)NC(=O)CNC(=O)[C@H](Cc1ccccc1)NC(=O)[C@H](CC(N)=O)NC(=O)[C@@H]1CCCN1C(=O)[C@H](CO)NC(=O)[C@H](CO)NC(=O)[C@H](Cc1c[nH]cn1)NC(=O)[C@H](CCCNC(=N)N)NC(=O)[C@H](CC(C)C)NC(=O)[C@H](Cc1ccccc1)NC(=O)[C@H](CC(=O)O)NC(=O)[C@H](C)NC(=O)[C@H](CC(C)C)NC(=O)[C@H](CCCNC(=N)N)NC(=O)[C@H](CCC(N)=O)NC(=O)[C@@H](NC(=O)[C@H](C)NC(=O)[C@@H]1CSSC[C@H](NC(=O)[C@@H](N)CCCCNC(=O)CC[C@H](NC(=O)CCCCCCCCCCCCCCCCCCC(=O)O)C(=O)O)C(=O)N[C@@H](CC(N)=O)C(=O)N[C@@H]([C@@H](C)O)C(=O)N[C@@H](C)C(=O)N[C@@H]([C@@H](C)O)C(=O)N1)[C@@H](C)O)C(=O)N1CCC[C@H]1C(=O)N[C@@H](CO)C(=O)N[C@@H](CO)C(=O)N[C@H](C(=O)N[C@@H](CC(N)=O)C(=O)N[C@H](C(=O)NCC(=O)N1CCC[C@H]1C(=O)N[C@@H](CCC(=O)O)C(=O)N[C@H](C(=O)N[C@@H](Cc1ccc(O)cc1)C(N)=O)[C@@H](C)O)C(C)C)[C@@H](C)O)

— US20140087995A1 (published 2014)
